# Results as given in US20150329626A1.
# Target: human VEGFR2 on cells (ECFC, HMVEC-d) (human) (UniProt P35968)
# Assay: cell-based or functional assay
# human VEGFR2 on cells (ECFC, HMVEC-d) (human), sequence (P35968 20-1356): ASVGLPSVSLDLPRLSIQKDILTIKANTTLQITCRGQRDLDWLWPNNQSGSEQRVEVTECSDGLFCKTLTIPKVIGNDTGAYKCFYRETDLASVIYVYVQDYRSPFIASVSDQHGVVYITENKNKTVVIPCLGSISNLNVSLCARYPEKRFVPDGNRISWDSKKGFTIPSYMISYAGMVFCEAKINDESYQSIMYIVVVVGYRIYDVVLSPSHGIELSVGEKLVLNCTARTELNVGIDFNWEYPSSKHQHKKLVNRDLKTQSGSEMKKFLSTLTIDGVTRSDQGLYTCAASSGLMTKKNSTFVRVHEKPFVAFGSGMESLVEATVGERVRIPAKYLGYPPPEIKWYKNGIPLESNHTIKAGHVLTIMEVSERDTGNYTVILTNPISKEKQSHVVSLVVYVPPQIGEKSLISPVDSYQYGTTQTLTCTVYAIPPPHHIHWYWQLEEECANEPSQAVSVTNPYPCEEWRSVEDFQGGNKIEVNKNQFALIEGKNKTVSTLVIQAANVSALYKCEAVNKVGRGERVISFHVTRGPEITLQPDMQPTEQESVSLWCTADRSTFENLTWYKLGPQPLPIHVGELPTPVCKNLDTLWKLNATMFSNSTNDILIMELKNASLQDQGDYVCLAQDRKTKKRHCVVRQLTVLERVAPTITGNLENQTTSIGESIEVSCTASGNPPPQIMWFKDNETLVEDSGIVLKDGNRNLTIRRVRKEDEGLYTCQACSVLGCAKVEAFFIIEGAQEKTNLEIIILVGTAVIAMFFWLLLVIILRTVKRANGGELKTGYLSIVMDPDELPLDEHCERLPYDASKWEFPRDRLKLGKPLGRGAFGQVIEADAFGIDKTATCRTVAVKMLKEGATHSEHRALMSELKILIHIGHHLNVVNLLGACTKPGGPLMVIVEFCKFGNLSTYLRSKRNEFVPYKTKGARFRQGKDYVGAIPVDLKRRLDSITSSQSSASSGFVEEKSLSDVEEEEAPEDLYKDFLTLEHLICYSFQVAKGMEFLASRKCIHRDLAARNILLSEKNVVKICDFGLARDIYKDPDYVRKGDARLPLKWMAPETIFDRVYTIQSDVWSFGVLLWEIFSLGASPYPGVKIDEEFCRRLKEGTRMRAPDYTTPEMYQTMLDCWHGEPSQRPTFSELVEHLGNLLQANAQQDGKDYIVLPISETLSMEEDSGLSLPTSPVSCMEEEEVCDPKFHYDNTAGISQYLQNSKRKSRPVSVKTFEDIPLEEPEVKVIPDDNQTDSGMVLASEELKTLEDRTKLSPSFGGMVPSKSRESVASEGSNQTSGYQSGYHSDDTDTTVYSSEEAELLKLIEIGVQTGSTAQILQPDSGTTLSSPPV
substance,measurement,value
IMC-1121B (antibody),inhibition of human VEGF165-induced proliferation of HMVEC-d (IC50),31.4 nM
